Data taken from patent US20050176073A1, “Cell proliferation associated with CCX CKR expression” (ChemoCentryx, Inc., priority 2004, published 2005).

T1: CCX CKR (Homo sapiens, UniProt Q9NPB9)
T1 sequence (Q9NPB9 1-350): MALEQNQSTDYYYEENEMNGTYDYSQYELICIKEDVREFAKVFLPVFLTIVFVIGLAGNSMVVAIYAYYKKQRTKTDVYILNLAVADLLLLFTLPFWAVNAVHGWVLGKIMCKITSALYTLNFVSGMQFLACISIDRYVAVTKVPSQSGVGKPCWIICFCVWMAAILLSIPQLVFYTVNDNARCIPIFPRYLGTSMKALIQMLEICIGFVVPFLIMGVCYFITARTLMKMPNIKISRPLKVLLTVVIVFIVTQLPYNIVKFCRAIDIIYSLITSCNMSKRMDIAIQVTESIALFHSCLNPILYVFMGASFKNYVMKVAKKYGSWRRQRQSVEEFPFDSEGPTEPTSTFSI


Tests used:
[1] = target: T1, CCX CKR; experiment: Small molecule modulators of CCX CKR function
Text: Other compounds are based upon agonists and antagonists for CCX CKR, which have been identified and are shown below: […]

[2] = system: HEK293 cells transfected with CCX CKR; experiment: PowerBlot protein expression analysis, HEK293 cells transfected with CCX CKR; type: cell-based, human; details: relative to cells simply transformed with CCX CKR; FIG. 2
Description: (§1) Studies were also conducted to assess what effect CCX CKR activity had on protein expression. This was analyzed by determining protein levels for both unstransfected HEK293 cells, and HEK293 cells transfected with CCX CKR, grown both in the presence and absence of the ligands ELC, SLC or TECK. Protein levels were determined using the BD PowerBlot™ technology developed by Becton Dickinson, and available from BD Biosciences Pharmingen. In general, this analysis involves separating proteins in cellular lysates by polyacrylamide electrophoresis and then conducting a Western blot with over 1,000 monoclonal antibodies specific for certain proteins. Antibodies that bind to a protein band on the gel are visualized using a digital camera that detects chemiluminescence from the bound antibody. The amount of protein can be determined based upon the strength of the signal. Further details regarding the application of this technology are discussed by Lorenz, P., et al. Proteomics (2003) 3:991-1002; Malakhov, M. P., et al. (2003) J. Biol. Chem. .278:16608-13; and Yoo, G. H., et al. (2002) Clin Cancer Res. 8:3910-21.
(§2) FIG. 2 provides a chart that provides a comparison of the number of proteins that were increased and decreased under different sets of conditions.

[3] = system: untransfected HEK293 cells; experiment: PowerBlot protein expression analysis, untransfected HEK293 cells; type: cell-based, human; details: untransfected HEK293 cells contacted with ligand; FIG. 2
Description: as §1, §2

[4] = target: T1, CCX CKR; details: WO 01/27146; cited from earlier work
[5] = system: HEK293 cells transfected with CCX CKR; experiment: Cell growth curves (hemacytometer counting) of HEK293 cells transfected with CCX CKR; type: cell-based, human; details: ligand in growth medium, growth curves over 6 days; FIG. 4
Description: Another set of experiments were conducted to ascertain whether CCX CKR plays a role in cell growth. One experiment involved culturing (1) untransfected HEK293 cells (ATCC #CRL 1573) (control), (2) HEK 293 cells transfected with CCX CKR as a polyclonal mixture, and (3) three different clones of HEK293 stably transfected with CCX CKR, thus giving a total of […] different cell cultures. Each of these cultures were obtained by seeding 50,000 cells/well in triplicate. The three different clones (clones 9, 12 and 13) were obtained by a limited dilution of the polyclonal mixture of cells.
Cells were allowed to attach for 12 hours in growth medium (Dulbecco's minimal essential medium with 10% fetal bovine serum), then cultured in the absence of fetal bovine serum for 12 hours to synchronize the cell cycle. Growth medium was then added back to cells, and plates returned to the incubator. Each day for 6 days, cells were removed with trypsin and counted with a hemacytometer.
Another set of experiments were conducted using the same procedure just described to address two issues: (1) whether the autoactive response observed in the first set of experiments was simply a consequence of the transformation process, and (2) to determine what effect ligands had on the ability of CCX CKR to promote cellular growth. […]

Molecule | Modulation of CCX CKR function (agonist or antagonist) [1] | Change in protein expression on addition of ligand [2] | Effect on protein expression levels [3] | Affinity of CCX CKR for chemokine [4] | Effect on cell growth [5]
CC1CCCCN1CCCN(Cc1ccc(OCc2ccccc2)cc1)C(=O)NC12CC3CC(CC(C3)C1)C2 (centres unmarked) [Compound II] | Compound II (antagonist) |  |  |  | 
CCC(c1nc2ccccc2c(=O)n1C)N(Cc1ccco1)C(=O)Nc1cccc(C(F)(F)F)c1 (centres unmarked) [Compound III] | Compound III (agonist) |  |  |  | 
ELC: chemokine, CCX CKR ligand, also referred to as MIP-3β |  | only a modest change in protein expression | relatively minor effect on protein expression levels | high affinity | 
CC1CCCCN1CCCN(Cc1ccc(OCc2ccccc2)cc1)C(=O)Nc1ccc(Cl)c(Cl)c1 (centres unmarked) [Compound I] | Compound I (antagonist) |  |  |  | 
SLC: chemokine, CCX CKR ligand, also referred to as 6-Ckine (protein, UniProt O00585 24-134, looked up) C-C motif chemokine 21: SDGGAQDCCLKYSQRKIPAKVVRSYRKQEPSLGCSIPAILFLPRKRSQAELCADPKELWVQQLMQHLDKTPSPQKPAQGCRKDRGASKTGKKGKGSKGCKRTERSQTPKGP |  | only a modest change in protein expression |  | high affinity | 
TECK: chemokine, CCX CKR ligand (protein, UniProt O15444 24-150, looked up) C-C motif chemokine 25: QGVFEDCCLAYHYPIGWAVLRRAWTYRIQEVSGSCNLPAAIFYLPKRHRKVCGNPKSREVQRAMKLLDARNKVFAKLHHNTQTFQAGPHAVKKLSSGNSKLSSSKFSNPISSSKRNVSLLISANSGL |  | only a modest change in protein expression |  | high affinity | modest effect on cell growth activity, with perhaps even a slight decrease in cell growth
